The source of these data is publication PMC7237333.

Common to all, as to assay: purified protein
The test system of series [1] is C[C@H]1O[C@@H](n2cnc3c(N)ncnc32)[C@H](O)[C@@H]1O. The conditions noted are these: 40 mM K-phosphate pH 7.8, 0.1 M MgCl2, 30 °C.
For series [2], the system named is CSC[C@H]1O[C@@H](n2cnc3c(N)ncnc32)[C@H](O)[C@@H]1O. As to conditions: 40 mM K-phosphate pH 7.8, 0.1 M MgCl2, 30 °C.
Substrate in series [3]: CSC[C@H]1O[C@H](OP(=O)(O)O)[C@H](O)[C@@H]1O
It is filed as biochemical, Bacillus subtilis. The conditions noted are these: 50 mM K-phosphate pH 7.8, 5 mM MgCl2, 0.3 mM CoCl2, 30 °C.

Substrate in series [4]: O=P(O)(O)O[C@H]1O[C@H](CO)[C@@H](O)[C@H]1O
It is filed as biochemical, Rhodospirillum rubrum. The conditions noted are these: 50 mM K-phosphate pH 7.8, 5 mM MgCl2, 0.3 mM CoCl2, 30 °C.

Substrate in series [5]: CSC[C@H]1O[C@H](OP(=O)(O)O)[C@H](O)[C@@H]1O
It is filed as biochemical, Escherichia coli. As to conditions: 50 mM K-phosphate pH 7.8, 5 mM MgCl2, 0.3 mM CoCl2, 30 °C.

Substrate in series [6]: C[C@H]1O[C@H](OP(=O)(O)O)[C@H](O)[C@@H]1O
It is filed as biochemical, Escherichia coli. As to conditions: 50 mM K-phosphate pH 7.8, 5 mM MgCl2, 0.3 mM CoCl2, 30 °C.

Substrate in series [7]: CSC[C@@H](O)[C@@H](O)C(=O)COP(=O)(O)O
It is filed as biochemical, Bacillus subtilis. As to conditions: 30 °C (also performed at 35 °C).

Substrate in series [8]: C[C@@H](O)[C@@H](O)C(=O)COP(=O)(O)O
It is filed as biochemical, Bacillus subtilis. As to conditions: 35 °C probably (used for weak substrates); 35.0 °C.

Regarding EcMtnN (Escherichia coli K-12), in series [1], the Km was determined as 4.7 µM, the kcat came to 57 s⁻¹ and the kcat/Km stood at 1.2e+07 M⁻¹ s⁻¹. Also, in series [2], the Km came out at 0.83 µM, the kcat was 150 s⁻¹ and the kcat/Km was 1.8e+08 M⁻¹ s⁻¹.

B1: BsMtnA (Bacillus subtilis subsp. subtilis str. 168) (protein)
chain: MTHSFAVPRSVEWKETAITILNQQKLPDETEYLELTTKEDVFDAIVTLKVRGAPAIGITAAFGLALAAKDIETDNVTEFRRRLEDIKQYLNSSRPTAINLSWALERLSHSVENAISVNEAKTNLVHEAIQIQVEDEETCRLIGQNALQLFKKGDRIMTICNAGSIATSRYGTALAPFYLAKQKDLGLHIYACETRPVLQGSRLTAWELMQGGIDVTLITDSMAAHTMKEKQISAVIVGADRIAKNGDTANKIGTYGLAILANAFDIPFFVAAPLSTFDTKVKCGADIPIEERDPEEVRQISGVRTAPSNVPVFNPAFDITPHDLISGIITEKGIMTGNYEEEIEQLFKGEKVH
As to B1, in “purified protein [3]”, the Km was 114 µM, the kcat is 3.9 s⁻¹ and the kcat/Km stood at 35000 M⁻¹ s⁻¹.

B2: RrMtnA (Rhodospirillum rubrum ATCC 11170) (protein)
chain: MNVKGTPTRTIWPAREGGAVWIIDQTRLPHEFVTQRLNDLGAVAHAIRAMLVRGAPLIGATAAYGVALGMAEDPSDEGLTRACQTLLATRPTAVNLRWAIEAMAESLAAVPPDQRAQAAWAKAGAICDEDVALNEAIGDHGLGIIKDLARTKGVEKGGEGPINILTHCNAGWLATVDWGTALAPLYKAHDAGLPIHVWVDETRPRNQGASLTAWELNSHGVPHTVIADNTGGHLMQHGLVDMVIVGTDRTTATGDVCNKIGTYLKALAAFDNAVPFYVALPGPTIDWTVNDGLREIPIEQRDAAEVTRVWGRTAAGALEWVTITPTGSPAANYAFDVTPARLITGLITERGVCAASAAGLAGLYPERAPAPVPAGSAAGKGAAATADGAL
As for B2, in the series “purified protein [4]”, the kcat was determined as 0.03 s⁻¹ and the kcat/Km was < 20 M⁻¹ s⁻¹.

B3: EcMtnA (Escherichia coli S88) (protein)
chain: MNIKGKHYRTVWVSGDGKAVEIIDQTKLPFKFEVVALTSAEMAATAIQDMWVRGAPLIGVVAAYGIALGMNHDASDMGLQRYYDLLIKTRPTAINLKWALDRMIDTLKDLCVSERKDVAWALAAEIAEEDVALCEQIGLHGAEVIREIAQKKPAGSVVNILTHCNAGWLATVDWGTALSPIYKAHENGIPVHVWVDETRPRNQGGLTAFELGSHGIPHTLIADNAGGHLMQHGDVDLCIVGTDRTTARGDVCNKIGTYLKALAAHDNHVPFYVALPSPTIDWTIEDGKSIPIEQRDGKEQSHVYGINPQGELSWVNTAPEGTRCGNYAFDVTPARYITGFITERGVCAASKSALADMFADLKSKALQGEQH
Take B3: in “purified protein [5]”, the Km stood at 50 µM, the kcat worked out at 0.49 s⁻¹ and the kcat/Km was 9800 M⁻¹ s⁻¹. In the series “purified protein [6]”, the Km was found to be 222 µM, the turnover number (kcat) was 2.02 s⁻¹ and the kcat/Km turned out to be 9100 M⁻¹ s⁻¹.

B4: Bs MtnB (Bacillus subtilis subsp. subtilis str. 168) (protein)
chain: MAAKQERWRELAEVKRELAERDWFPATSGNLSIKVTDEPLTFLVTASGKDKRKETVEDFLLVDQNGEPAESGHSLKPSAETLLHTHLYNKTNAGCCLHVHTVNNNVISELYGDQKKITFKGQEIIKALGLWEENAEVTVPIIENPAHIPTLAALFAEEISEDSGAVLIRNHGITAWGKTAFEAKRVLEAYEFLFSYHLKLKTLEHQLVK
As to B4, in the series “purified protein [7]”, the Km worked out at 24 µM, the kcat came out at 16 s⁻¹ and the kcat/Km worked out at 670000 M⁻¹ s⁻¹. In “purified protein [8]”, the Km stood at 315 µM, the kcat was found to be 0.053 s⁻¹ and the kcat/Km came to 200 M⁻¹ s⁻¹.
